# Source: patent US11214774B2, “PINK1 C-terminal domain polypeptide and methods using the same in cancer treatment” (National Taiwan University, priority 2015, dated 2022)
# Key:
# EGFR = EGFR dimerization assay under PINK1-CTD overexpression; type: cell-based; conditions: CL1-5, PC9, H1975 and H3255 cells (FIG. 9A)
# EGFR pathway = assay: Immunoblotting of EGFR pathway under PINK1-CTD overexpression; type: cell-based
# From the text: FIGS. 9A and 9B show hindrance of PINK1-CTD to EGFR dimerization and activation.
# (§1) It was next investigated the in vivo tumor growth of PINK1-CTD stably expressing CL1-5, PC9, H1975 and H3255 cells. It has been shown that PINK1-CTD inhibits EGFR activation. It not only downregulates EGFR downstream signaling in EGFR-addicted PC9, H1975 and H3255 cells but also attenuates STATS-Y705 phosphorylation in EGFR non-addicted CL1-5 cells (FIGS. 9A and 9B). […] In addition, the synthetic polypeptide PINK1-CTD (Genmedkia Biotechnology Corp.) was used in mouse xenograft model. 2 μM of CTD polypeptide or R9 peptide (as control group) was injected into the mouse every day or every two days (as shown by arrow in FIGS. 11A and 11B).
# [1] = test system: CL1-5, PC9, H1975 and H3255 cells; assay: Tumor xenografts of PINK1-CTD stably expressing lung cancer cells; type: in vivo; conditions: CL1-5, PC9, H1975 and H3255 xenografts (FIGS. 6B, 6E, 6H, 6K)
# From the text: FIGS. 6A-6L show tumor xenografts of shPINK1, PINK1 and PINK1-CTD stably expressing lung cancer cells. FIGs. A, D, G and J: PINK1 overexpression aggravated tumor growth in CL1-5 cells but suppressed tumor growth in PC9, H1975 and H3255 cells; FIGs. B, E, H and K: PINK1-CTD overexpression inhibited tumor growth in all cells tested; FIGs. C, F, I and L: PINK1 knockdown inhibited tumor growth in CL1-5 cells but promoted tumor growth in PC9, H1975 and H3255 cells. N=7 in each group.
# as §1
# [2] = test system: EGFR-TKD (amino acids 645-954); assay: In vitro GST pull-down assay; type: binding; conditions: recombinant GST-fused PINK1-CTD incubated with purified His-tagged EGFR-TKD; anti-His immunoblot (FIG. 3E)
# From the text: To dissect the interaction between PINK1 and EGFR, it was next investigated whether these two protein kinases interact directly and through which domains they interplay. It was established a flag-fused full-length EGFR construct, EGFR-flag, (amino acids 1-1210) and 8 serial truncated EGFR-flag constructs based on different EGFR functional domains (amino acids 1-378, 1-621, 1-644, 1-690, 1-954, 645-1210, 645-954, 955-1210) (FIG. 3A). Each of these 9 constructs was co-overexpressed with full-length PINK1 in HEK293 cells. The cell lysates were immunoprecipitated by anti-flag antibody and the immunoprecipitates were immunoblotted by PINK1 antibody. […] It was simultaneously established a myc-fused full-length PINK1 construct and another 7 truncated PINK1-myc constructs containing amino acids 1-509, 1-155, 156-509, 156-309, 310-428, 429-581 and 78-581, respectively (FIG. 3C). Each of these 8 constructs was co-transfected with full-length EGFR-flag in HEK293 cells. The cell lysates were immunoprecipitated by anti-myc antibody and immunoblotted with anti-flag antibody. […] Recombinant GST-fused PINK1-CTD (amino acids 510-581) and negative-control construct GST-fused PINK1310-428 (amino acids 310-428) were individually incubated with purified His-tagged EGFR-TKD (amino acids 645-954) and analyzed by immunoblotting with anti-His antibody (FIG. 3E). […]
# EGFR (HER1) [3] = molecular target: T1, EGFR (HER1) (Homo sapiens, UniProt P00533); assay: EGFR (HER1) phosphorylation in lung cancer cells co-cultured with CTD polypeptide; type: cell-based; conditions: 2 μM, vs R9 control (FIG. 5A)
# T1 construct: endogenous in cells; host or cells: CL1-5, HOP62, PC9, H1975 lung cancer cells
# From the text: (§2) R9: a peptide consisting of 9 arginine residues.
# (§3) To determine the interaction between PINK1-CTD and HER1 or HER2, PINK1-CTD polypeptide was co-cultured with CL1-5, HOP62, PC9 or H1975 cells. In this example, the used PINK1-CTD was synthesized from Genmedkia Biotechnology Corp., and it was conjugated with 9 arginine residues for membrane attaching and internalization. The group in which the cells were co-cultured with a peptide only having 9 arginine residues (R9) was used as control group.
# EGFR (HER1) [4] = molecular target: T2, EGFR (HER1) (Homo sapiens, UniProt P00533, L858R/T790M); assay: as above; type: cell-based; conditions: H1975 cells; 2 μM; vs R9 control (FIG. 5A)
# T2 construct: endogenous in cells; host or cells: CL1-5, HOP62, PC9, H1975 lung cancer cells
# From the text: as §2, §3
# EGFR (HER1) [5] = assay: as above; type: cell-based; conditions: PC9 cells; 2 μM; vs R9 control (FIG. 5A)
# From the text: as §2, §3
# HER2 = molecular target: T3, HER2 (Homo sapiens, UniProt P04626); assay: HER2 phosphorylation in CL1-5 cells co-cultured with CTD polypeptide; type: cell-based; conditions: CL1-5 cell (FIG. 5B)
# T3 construct: endogenous in cells; host or cells: CL1-5 cells
# From the text: as §2, §3
# CL1-5 [6] = assay: CL1-5 lung cancer mouse xenograft model, CTD treatment; type: in vivo; conditions: CL1-5 xenograft; 2 μM injected every day or every two days; vs R9 (FIG. 11A)
# From the text: as §2, §1
# H1975 [7] = assay: H1975 lung cancer mouse xenograft model, CTD treatment; type: in vivo; conditions: 2 μM injected every day or every two days, vs R9 (FIG. 11B)
# From the text: as §2, §1
# CL1-5 [8] = assay: In vitro MTT assay, CL1-5; type: cell-based; conditions: 2 μM (FIG. 11C)
# H1975 [9] = assay: In vitro MTT assay, H1975; type: cell-based; conditions: 2 μM (FIG. 11C)
# PC9 = assay: In vitro MTT assay, PC9; type: cell-based; conditions: 2 μM (FIG. 11C)
# Hop62 = assay: In vitro MTT assay, Hop62; type: cell-based; conditions: 2 μM (FIG. 11C)
molecule,measurement,setting,value
"PINK1-CTD: PINK1 C-terminal domain, amino acids 510 to 581 of PINK1 (SEQ ID NO: 1); overexpressed / stably expressed in cells (protein, listed as Homo sapiens) SLWGEHILALKNLKLDKMVGWLLQQSAATLLANRLTEKCCVETKMKMLFLANLECETLCQAALLLCSWRAAL",EGFR dimer to monomer ratio,EGFR,a decrease in EGFR dimer to monomer ratio
same,EGFR downstream signaling,"EGFR pathway; EGFR-addicted PC9, H1975 and H3255 cells (FIG. 9B)",concurrently downregulated
same,phosphorylated EGFR-Y1068 to total EGFR ratio,EGFR pathway; all cells analyzed (FIG. 9B),a decrease in phosphorylated EGFR-Y1068 to total EGFR ratio
same,STAT3-Y705 phosphorylation,EGFR pathway; wild-type EGFR CL1-5 cells (FIG. 9B),only a decrease in STAT3-Y705 phosphorylation
same,in vivo tumor growth of PINK1-CTD stably expressing cells,[1],exerted inhibitory effects in all the cells tested
"GST-fused PINK1-CTD: Recombinant GST-fused PINK1 C-terminal domain, amino acids 510-581 of PINK1 (protein, left off: a dimerising Fc or GST, Recombinant GST-fused PINK1 C-terminal domain, amino acids 510-581 of PINK1) SLWGEHILALKNLKLDKMVGWLLQQSAATLLANRLTEKCCVETKMKMLFLANLECETLCQAALLLCSWRAAL",direct binding to EGFR-TKD,[2],directly bound to EGFR-TKD
"CTD polypeptide: Synthesized PINK1-CTD (Genmedkia Biotechnology Corp.), conjugated with 9 arginine residues for membrane attaching and internalization (peptide) peptide: SLWGEHILALKNLKLDKMVGWLLQQSAATLLANRLTEKCCVETKMKMLFLANLECETLCQAALLLCSWRAALRRRRRRRRR",EGFR (HER1) phosphorylation,EGFR (HER1) [3]; CL1-5 cells,effectively inhibited
same,EGFR (HER1) phosphorylation,EGFR (HER1) [3]; HOP62 cells,effectively inhibited
same,EGFR (HER1) phosphorylation,EGFR (HER1) [4],effectively inhibited
same,EGFR (HER1) phosphorylation,EGFR (HER1) [5],effectively inhibited
same,HER2 phosphorylation,HER2,inhibited HER2 phosphorylation in CL1-5 cell in a dose-dependent manner
same,in vivo tumor growth,CL1-5 [6],inhibited in vivo tumor growth
same,in vivo tumor growth,H1975 [7],inhibited in vivo tumor growth
same,cell viability (MTT),CL1-5 [8],reduced
same,cell viability (MTT),H1975 [9],reduced
same,cell viability (MTT),PC9,reduced
same,cell viability (MTT),Hop62,reduced
